Here are results for three molecules from publication PMC6677837, “A Novel Cell-Penetrating Antibody Fragment Inhibits the DNA Repair Protein RAD51” (Scientific Reports, 2019).

Series [1] deals with RAD51 (Homo sapiens, UniProt Q06609 21-339). The series is described as follows: BLI; no Fab-F2; 1:1 Langmuir global fit; BLI on streptavidin biosensors; 0.5 uM RAD51 for the inhibition assay; buffer, salt, pH and temperature not given in the material (RAD51 dialyzed into PBS). Particulars: protein: recombinant; label: 5'-biotin; single strand. On the technique in general: Biolayer interferometry detects binding as a change in optical thickness at a sensor tip.

In series [2] the target is T1, Recombinant human RAD51 (residues 21-339, C-terminal Leu-Glu-His6) (human, UniProt Q06609 21-339).
T1 chain: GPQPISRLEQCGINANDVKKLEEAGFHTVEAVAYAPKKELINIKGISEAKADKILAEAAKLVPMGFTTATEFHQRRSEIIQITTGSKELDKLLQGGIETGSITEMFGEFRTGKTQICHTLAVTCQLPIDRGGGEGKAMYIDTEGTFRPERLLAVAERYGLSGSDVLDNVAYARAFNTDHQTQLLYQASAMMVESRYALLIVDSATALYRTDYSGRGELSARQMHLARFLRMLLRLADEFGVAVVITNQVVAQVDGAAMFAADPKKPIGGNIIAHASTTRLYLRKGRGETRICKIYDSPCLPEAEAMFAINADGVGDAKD
Briefly: BLI.

Series [3] has as its target T2, Recombinant human RAD51 (residues 21-339, C-terminal Leu-Glu-His6) (Homo sapiens, UniProt Q06609).
T2 construct: RAD51, Homo sapiens, residues 21-339, inserted between the NcoI and XhoI sites of pET28a; Cloning at the NcoI site may add a start methionine; also called purified RAD51; plasmid-expressed RAD51; source: E. coli Rosetta(DE3), pET28a-RAD51, purified (ammonium sulfate, DE52 anion exchange, HiTrap Ni-chelating column); also in E. coli whole cell lysate
The series is described as follows: BLI; Fab (about 0.5 nm) immobilised on Protein L biosensors, range of RAD51 concentrations in solution; 25 °C, PBS pH 7.4 with 0.1% Tween 20 and 10 mg/mL BSA; global fit, 1:1 Langmuir model, reference well subtracted. Particulars: both partners purified.

For series [4], the target named is T2, Recombinant human RAD51 (residues …). Briefly: cell-based or functional assay.

On to TTTTTTTTTTTTTTTTTTTTTTTTTTTTTTTTTTTT (ssDNA) [oligo(dT)36], for which, in series [1], the Kd worked out at 27.6 ± 4.75 nM.

B1: Fab-F2-iPTD (Fab, V domains shown)
VH: EVQLVESGGGLVQPGGSLRLSCAASGFTFSSYGMHWVRQAPGKGLEWVAVISYDGSNKYYADSVKGRFTISADTSKNTAYLQMNSLRAEDTAVYYCARTYSYASRGWYDYWGQGTLVTVSS
VL: DIQMTQSPSSLSASVGDRVTITCRASQGISNYLAWYQQKPGKAPKLLIYAASSLQSGVPSRFSGSRSGTDFTLTISSLQPEDFATYYCQQGTYLPLTFGQGTKVEIK
notes: as the heavy chain of m2; as the light chain of m2; also called cell-penetrating Fab-F2-iPTD; source: E. coli, pCW-Fab-F2-iPTD, purified
Turning to B1, the koff in series [2] was determined as 0.000658 s⁻¹. Besides, in series [3], the Kd turned out to be 18.2 nM; the “koff, fold lower than for Fab-F2” value is ~2 fold; the “kon, fold lower than for Fab-F2” value was ~2 fold.

B2: Fab-F2 (Fab, V domains shown)
VH: B1 VH
VL: B1 VL
notes: Human IgG1 synthetic Fab from phage Library S (randomised CDRL3 and CDRH3, canonical other CDRs); In the Western blots the Fab was labelled with IRDye 800CW; also called IRDye 800CW-labeled Fab-F2; source: also in small-scale E. coli lysate
Regarding B2, the “inhibition of RAD51 (500 nM, pre-incubated with various concentrations of Fab-F2) binding to immobilised 5'-biotinylated oligo(dT)36 ssDNA, by BLI; IC50” value in series [4] is < 125 nM. Besides, in series [3], the Kd is 8.1 ± 0.21 nM, the koff worked out at 0.000156 s⁻¹ and the kon came to 19300 M⁻¹ s⁻¹.

In general, Kd refers to the free concentration of one partner at which half of the binding sites on the other are occupied at equilibrium, for simple one-to-one binding. A word on the koff: it is the first-order rate constant of dissociation. What is called kon is the second-order rate constant of association.
